B1: Pistol ribozyme (parent)
chain: GGGUCGUUGUUCCAUAAUCGCGUGGAUAUGGCACGCAAGUUUCUACCGGGCACCGUAAAUGUCCGACUGGAGCCGUUCGGGCGGCUAUAAACAGACCUCAGGCCCGAAGCGUGGCGGCACCUGCCGCCGGUGGUAAAAAAGAUCGGAAGAGCACACGUCU

Variants of: B1
Assay: aptazyme ON/OFF ratio, guanine; higher = stronger switching; co-transcriptional cleavage with and without guanine

Row | Variant | aptazyme ON/OFF ratio
1 | U7A G9U U10G U11A C12U C13U | 1.26
2 | U7A G9U U10G U11A C12U C13A | 1.16
3 | U7A G9U U10G U11A C12U C13G | 1.16
4 | U7A U8A G9A U10C C12A | 1.1
5 | U7A U8A G9A U10C C12U | 1.23
6 | U7A U8A G9A U10C C12G | 1.05
7 | U7A G9U U11G C12A | 1.11
8 | U7A G9U U11G C12U | 1.52
9 | U7A G9U U11G C12G | 1.15
10 | U7A G9U U10G U11G | 1.1
11 | U7A G9U U10G U11C | 1.06
12 | U7A G9U U10G U11A | 1.08
13 | U7A G9U U11A | 1.27
14 | U7A G9U U11G | 1.36
15 | U7A G9U U11C | 1.15
16 | U7A U8A G9A U10C C12G C13A | 1.11
17 | U7A U8A G9A U10C C12G C13U | 1.08
18 | U7A U8A G9A U10C C12G C13G | 1.03
19 | U7A G9U U11A C12G C13U | 1.25
20 | U7A G9U U11A C12G C13A | 1.08
21 | U7A G9U U11A C12G C13G | 1.12

Row | Variant | aptazyme ON/OFF ratio
22 | U7A G9U U10C U11C C12G | 1.05
23 | U7A G9U U10C U11C C12U | 1.03
24 | U7A G9U U10C U11C C12A | 1.09
25 | U7A G9U U10G U11A C13G | 1.08
26 | U7A G9U U10G U11A C13U | 1.05
27 | U7A G9U U10G U11A C13A | 1.09
28 | U7A G9U U10C U11G C12A C13A | 1.05
29 | U7A G9U U10C U11G C12A C13U | 1.11
30 | U7A G9U U10C U11G C12A C13G | 1.2
31 | U7A U8A G9A U10C U11G C12U C13G | 1.05
32 | U7A U8A G9A U10C U11G C12U C13U | 1.13
33 | U7A U8A G9A U10C U11G C12U C13A | 1.14
34 | U7A U8A G9A C12G | 1.4
35 | U7A U8A G9A C12U | 1.32
36 | U7A U8A G9A C12A | 1.46
37 | U7A G9U U11A C12A C13U | 1.19
38 | U7A G9U U11A C12A C13G | 1.16
39 | U7A G9U U11A C12A C13A | 1.39
40 | U7A U8A G9A U10C U11A C12U | 1.17
41 | U7A U8A G9A U10C U11A C12G | 1.1
42 | U7A U8A G9A U10C U11A C12A | 1.08

Row | Variant | aptazyme ON/OFF ratio
43 | U7A G9U U11G C13A | 1.15
44 | U7A G9U U11G C13U | 1.31
45 | U7A G9U U11G C13G | 1.04
46 | U7A G9U U11C C12A | 1.34
47 | U7A G9U U11C C12G | 1.18
48 | U7A G9U U11C C12U | 1.16
49 | U7A G9U U10C U11C C12U C13A | 1.06
50 | U7A G9U U10C U11C C12U C13U | 1.07
51 | U7A G9U U10C U11C C12U C13G | 1.02
52 | U7A U8A G9A U10A | 1.46
53 | U7A U8A G9A U10C | 1.52
54 | U7A U8A G9A U10C C13G | 1.04
55 | U7A U8A G9A U10C C13A | 1.13
56 | U7A U8A G9A U10C C13U | 1.09
57 | U7A U8A G9A U10C C12U C13G | 1.15
58 | U7A U8A G9A U10C C12U C13U | 1.19
59 | U7A U8A G9A U10C C12U C13A | 1.01
60 | U7A G9U U10G U11A C12A C13G | 1.17
61 | U7A G9U U10G U11A C12A C13A | 1.14
62 | U7A G9U U10G U11A C12A C13U | 1.18
63 | U7A G9U U10C U11G C13A | 1.13

Row | Variant | aptazyme ON/OFF ratio
64 | U7A G9U U10C U11G C13G | 1.09
65 | U7A G9U U10C U11G C13U | 1.2
66 | U7A U8A G9A U10C U11G C12G | 1.23
67 | U7A U8A G9A U10C U11G C12U | 1.11
68 | U7A U8A G9A U10C U11G C12A | 1.12
69 | U7A U8A G9A U10C U11C C12A C13A | 1.12
70 | U7A U8A G9A U10C U11C C12A C13G | 1.04
71 | U7A U8A G9A U10C U11C C12A C13U | 1.07
72 | U7A G9U U10G C12A C13U | 1.3
73 | U7A G9U U10G C12A C13A | 1.16
74 | U7A G9U U10G C12A C13G | 1.13
75 | U7A U8A G9A U10C U11C C12G C13A | 1.08
76 | U7A U8A G9A U10C U11C C12G C13G | 1.07
77 | U7A U8A G9A U10C U11C C12G C13U | 1
78 | U7A G9U U10G U11C C12A C13G | 1.12
79 | U7A G9U U10G U11C C12A C13A | 1.14
80 | U7A G9U U10G U11C C12A C13U | 1.24
81 | U7A G9U U10G U11C C12U C13U | 1.22
82 | U7A G9U U10G U11C C12U C13A | 1.29
83 | U7A G9U U10G U11C C12U C13G | 1.19
84 | U7A U8A G9A U10A U11G C13G | 1.18
